Laboratory results: patent publication US20200399712A1, “COMPOSITIONS AND METHODS FOR THE DIAGNOSIS AND DETECTION OF TUMORS AND CANCER PROGNOSIS” (priority 2018, published 2020)
“Also recorded” adds a separate entry of the source. Marks after values point to notes of the source that are not given here.

Legend:
[1] = system: HPV-16 genome; test: qPCR sensitivity against HPV-16 copy number (known-copy HPV-16 DNA among 10 ng normal human DNA)
Description: (§1) All samples were run in triplicates.
To seek the most promising primer-probe set in the viewpoint of sensitivity, Applicants evaluated the sensitivity analysis for these candidate primer-probe sets. […] Therefore, the sensitivity of E6 (FIG. 3A) and E7 (FIG. 3B) was also 30 copies. […] The candidate primer-probe sets were the “Min-4” (FIG. 3C), “Min-5” (FIG. 3D), “Min-6” (FIG. 3E), “Max-10” (FIG. 3F), “E6-11” (FIG. 3G), “E6-13” (FIG. 3H), respectively.
In addition, Applicants performed sensitivity analysis to identify the most sensitive primer/probe set from among the candidate sets.
To validate the function of primer/probe sets, Applicants calculated the slope of delta Rn against cycle threshold for HPV-16 copy number detection from defined HPV copy number DNA derived from CaSki cell line.

[2] = system: HPV-16; test: qPCR on 20 ng DNA from saliva samples of HPV-HNSCC patients; details: 28 HPV-HNSCC saliva samples
Experimental: as §1
The sensitivity of detection from saliva 20 ng DNA samples is 32.1% (9/28) in E6 primer-probe sets, 42.9% (12/28) in E7 primer-probe sets, 35.7% (10/28) in “Min-5” primer-probe sets, 46.4% (13/28) in “Max-10” primer-probe sets. The sensitivity of combination of “5” and “10” is 50% (14/28) and that of E6 and E7 is 42.9% (12/28). By the standard curve analysis, the copy numbers that detected by “Max-10” primer-probe sets were the highest in these 4 primer-probe sets. The slope of standard curve is −3.5 in “Min-5” primer-probe sets when delta Rn is plotted against cycle threshold (FIG. 5).

[3] = system: HPV16 DNA; test: CLIA test for HPV16, performance characteristics in plasma
Description: (§2) These primer/probe sets were adapted for development of a CLIA test for HPV16 DNA detection in plasma and salivary rinses (Table 2). Test performance was improved, so that analytical sensitivity in salivary rinse spike in assays ranges from 2.5-5.0 DNA copies/mL with 100% specificity for the three primer/probe sets that are now part of the component assay, resulting in a five-fold improvement in analytic sensitivity that is in the range of sensitivity found in sequence based liquid biopsy methods (FIG. 23, Table 2). Additionally, the assays can be used quantitatively, with measuring ranges between 2.0 log10-7.0 log10 copies/mL.

[4] = system: HPV16 DNA; test: CLIA test for HPV16, performance characteristics in salivary rinse
Description: as §2

[5] = system: HPV DNA; test: CLIA HPV test pilot study on saliva rinse samples from HPV-positive HNSCC patients and non-cancer controls; parameters: species or system HPV16; HPV16 DNA measured by CLIA HPV test: unit not given here
Experimental: As a final validation, Applicants a small pilot study was performed on a blinded set of saliva rinse samples from 28 patients with HPV-positive HNSCC and 15 salivary rinses from non-cancer controls. […] The sensitivity increased to 96% when all three sets were used (Table 3).

[6] = system: HPV-16; test: qPCR sensitivity against HPV-HNSCC tumor samples diluted among 10 ng normal human DNA
[7] = among 10 ng normal DNA, triplicate qPCR
[8] = samples tested 3 times, 10 ng DNA from healthy individual
[9] = first template ('... HPV16', word is an image)
[10] = second template (name is an image)
[11] = tumor DNA dilution, fraction of 32 samples

B1: E7: previously designed (historical) HPV-16 E7 primers and Taqman probe, SEQ ID NO: 10-12; part of CLIA test (nucleic acid)
DNA 1: CCGGACAGAGCCCATTACAA
DNA 2: CGAATGTCTACGTGTGTGCTTTG
DNA 3: CGCACAACCGAAGCGTAGAGTCACACT
modifications: Taqman probe, labels not given here
notes: part of CLIA test
- sensitivity (HPV-16 copies) ([1]; HPV-16 genome among normal 10 ng DNA samples, consistent triplicate reaction): 30 copies
- reaction under 10 copies of HPV-16 genome [1, 7]: reacted inconsistently
- reaction under 30 copies of HPV-16 genome [1, 7]: reacted consistently triplicate; also recorded: reacted consistently in triplicates
- number of reactions against 10 HPV-16 copies [1, 8]: 2 reactions
- number of reactions under 30 HPV-16 copies [1, 8]: 3 reactions
- sensitivity of detection from saliva 20 ng DNA samples [2]: 42.9%
- Accuracy - Plasma Blind Panel, Negative % Agreement [3]: 90%
- Accuracy - Plasma Blind Panel, Positive % Agreement [3]: 100%
- Accuracy - Plasma Blind Panel, Total % Agreement [3]: 97%
- Measuring Range - Plasma ([3]; first template ('... HPV16')): 2.0-8.5 log10 log10 copies/mL
- Limit of Detection - Plasma [3, 9]: 1.5 copies/mL
- Limit of Detection - Plasma [3, 10]: 13 copies/mL
- Measuring Range - Plasma [3, 10]: 2.0-5.0 log10 log10 copies/mL
- Measuring Range - Salivary Rinse ([4]; first template ('... HPV16')): 2.0-8.5 log10 log10 copies/mL
- Limit of Detection - Salivary rinse [4, 9]: 3 copies/mL
- Limit of Detection - Salivary rinse [4, 10]: 23 copies/mL
- Measuring Range - Salivary Rinse [4, 10]: 2.0-6.5 log10 log10 copies/mL
- sensitivity for the detection of HPV DNA in saliva rinse samples ([5]; 28 patients with HPV-positive HNSCC): 82%
- HPV16 DNA measured by CLIA HPV test ([5]; saliva sample from HPV-HNSCC patient # 1): 328000
- HPV16 DNA measured by CLIA HPV test ([5]; saliva sample from HPV-HNSCC patient # 2): 50000
- HPV16 DNA measured by CLIA HPV test ([5]; saliva sample from HPV-HNSCC patient # 3): 48500
- HPV16 DNA measured by CLIA HPV test ([5]; saliva sample from HPV-HNSCC patient # 4): 46500
- HPV16 DNA measured by CLIA HPV test ([5]; saliva sample from HPV-HNSCC patient # 5): 14700
- HPV16 DNA measured by CLIA HPV test ([5]; saliva sample from HPV-HNSCC patient # 6): 7320
- HPV16 DNA measured by CLIA HPV test ([5]; saliva sample from HPV-HNSCC patient # 7): 4950
- HPV16 DNA measured by CLIA HPV test ([5]; saliva sample from HPV-HNSCC patient # 8): 1570
- HPV16 DNA measured by CLIA HPV test ([5]; saliva sample from HPV-HNSCC patient # 9): 1020
- HPV16 DNA measured by CLIA HPV test ([5]; saliva sample from HPV-HNSCC patient # 10): 981
- HPV16 DNA measured by CLIA HPV test ([5]; saliva sample from HPV-HNSCC patient # 11): 521
- HPV16 DNA measured by CLIA HPV test ([5]; saliva sample from HPV-HNSCC patient # 12): 155
- HPV16 DNA measured by CLIA HPV test ([5]; saliva sample from HPV-HNSCC patient # 13): 140
- HPV16 DNA measured by CLIA HPV test ([5]; saliva sample from HPV-HNSCC patient # 14): 82.7
- HPV16 DNA measured by CLIA HPV test ([5]; saliva sample from HPV-HNSCC patient # 15): 62.6
- HPV16 DNA measured by CLIA HPV test ([5]; saliva sample from HPV-HNSCC patient # 16): 41.2
- HPV16 DNA measured by CLIA HPV test ([5]; saliva sample from HPV-HNSCC patient # 17): 14.1
- HPV16 DNA measured by CLIA HPV test ([5]; saliva sample from HPV-HNSCC patient # 18): 9.69
- HPV16 DNA measured by CLIA HPV test ([5]; saliva sample from HPV-HNSCC patient # 19): 8.17
- HPV16 DNA measured by CLIA HPV test ([5]; saliva sample from HPV-HNSCC patient # 20): 6.5
- HPV16 DNA measured by CLIA HPV test ([5]; saliva sample from HPV-HNSCC patient # 21): 4.02
- HPV16 DNA measured by CLIA HPV test ([5]; saliva sample from HPV-HNSCC patient # 22): 2.52
- HPV16 DNA measured by CLIA HPV test ([5]; saliva sample from HPV-HNSCC patient # 23): 0.986
- sensitivity under 100 cells ([6]; 32 HPV-HNSCC tumor samples): 96.9%
- sensitivity under single cells ([6]; 32 HPV-HNSCC tumor samples, 6.6 pg DNA): 9.4%
- sensitivity under 10 cells ([6]; 32 HPV-HNSCC tumor samples, 66 pg DNA): 68.8%
- Threshold of tumor cell numbers for HPV-16 detection ([6]; Sample # 1): 60.0 tumor cells
- Threshold of tumor cell numbers for HPV-16 detection ([6]; Sample # 2): 30.0 tumor cells
- Threshold of tumor cell numbers for HPV-16 detection ([6]; Sample # 3): 30.0 tumor cells
- Threshold of tumor cell numbers for HPV-16 detection ([6]; Sample # 4): 150.0 tumor cells
- Threshold of tumor cell numbers for HPV-16 detection ([6]; Sample # 5): 6.0 tumor cells
- Threshold of tumor cell numbers for HPV-16 detection ([6]; Sample # 6): 6.0 tumor cells
- Threshold of tumor cell numbers for HPV-16 detection ([6]; Sample # 7): 30.0 tumor cells
- Threshold of tumor cell numbers for HPV-16 detection ([6]; Sample # 8): 15.0 tumor cells
- Threshold of tumor cell numbers for HPV-16 detection ([6]; Sample # 9): 30.0 tumor cells
- Threshold of tumor cell numbers for HPV-16 detection ([6]; Sample # 10): 6.0 tumor cells
- Threshold of tumor cell numbers for HPV-16 detection ([6]; Sample # 11): 6.0 tumor cells
- Threshold of tumor cell numbers for HPV-16 detection ([6]; Sample # 12): 30.0 tumor cells
- Threshold of tumor cell numbers for HPV-16 detection ([6]; Sample # 13): 6.0 tumor cells
- Threshold of tumor cell numbers for HPV-16 detection ([6]; Sample # 14): 6.0 tumor cells
- Threshold of tumor cell numbers for HPV-16 detection ([6]; Sample # 15): 6.0 tumor cells
- Threshold of tumor cell numbers for HPV-16 detection ([6]; Sample # 16): 6.0 tumor cells
- Threshold of tumor cell numbers for HPV-16 detection ([6]; Sample # 17): 1.2 tumor cells
- Threshold of tumor cell numbers for HPV-16 detection ([6]; Sample # 18): 6.0 tumor cells
- Threshold of tumor cell numbers for HPV-16 detection ([6]; Sample # 19): 1.2 tumor cells
- Threshold of tumor cell numbers for HPV-16 detection ([6]; Sample # 20): 1.2 tumor cells
- Threshold of tumor cell numbers for HPV-16 detection ([6]; Sample # 21): 1.2 tumor cells
- Threshold of tumor cell numbers for HPV-16 detection ([6]; Sample # 22): 1.2 tumor cells
- Threshold of tumor cell numbers for HPV-16 detection ([6]; Sample # 23): 1.2 tumor cells
- Threshold of tumor cell numbers for HPV-16 detection ([6]; Sample # 24): 1.2 tumor cells
- Threshold of tumor cell numbers for HPV-16 detection ([6]; Sample # 25): 0.3 tumor cells
- Threshold of tumor cell numbers for HPV-16 detection ([6]; Sample # 26): 0.3 tumor cells
- Threshold of tumor cell numbers for HPV-16 detection ([6]; Sample # 27): 1.0 tumor cells
- Threshold of tumor cell numbers for HPV-16 detection ([6]; Sample # 28): 1.0 tumor cells
- Threshold of tumor cell numbers for HPV-16 detection ([6]; Sample # 29): 3.0 tumor cells
- Threshold of tumor cell numbers for HPV-16 detection ([6]; Sample # 30): 15.0 tumor cells
- Threshold of tumor cell numbers for HPV-16 detection ([6]; Sample # 31): 0.6 tumor cells
- Threshold of tumor cell numbers for HPV-16 detection ([6]; Sample # 32): 15.0 tumor cells
- Sensitivity, 1 cell [6, 11]: 0.094
- Sensitivity, 3 cells [6, 11]: 0.375
- Sensitivity, 10 cells [6, 11]: 0.688
- Sensitivity, 30 cells [6, 11]: 0.938*
- Sensitivity, 100 cells [6, 11]: 0.969*
